Laboratory results published in US20230295327A1.

Biological target: IL-12 receptor of human T cells (human) (UniProt P42701)
Assay: cell-based or functional assay

Sequence of IL-12 receptor of human T cells (human) (Q99665 24-862, chain 2 of 2, other chains not shown): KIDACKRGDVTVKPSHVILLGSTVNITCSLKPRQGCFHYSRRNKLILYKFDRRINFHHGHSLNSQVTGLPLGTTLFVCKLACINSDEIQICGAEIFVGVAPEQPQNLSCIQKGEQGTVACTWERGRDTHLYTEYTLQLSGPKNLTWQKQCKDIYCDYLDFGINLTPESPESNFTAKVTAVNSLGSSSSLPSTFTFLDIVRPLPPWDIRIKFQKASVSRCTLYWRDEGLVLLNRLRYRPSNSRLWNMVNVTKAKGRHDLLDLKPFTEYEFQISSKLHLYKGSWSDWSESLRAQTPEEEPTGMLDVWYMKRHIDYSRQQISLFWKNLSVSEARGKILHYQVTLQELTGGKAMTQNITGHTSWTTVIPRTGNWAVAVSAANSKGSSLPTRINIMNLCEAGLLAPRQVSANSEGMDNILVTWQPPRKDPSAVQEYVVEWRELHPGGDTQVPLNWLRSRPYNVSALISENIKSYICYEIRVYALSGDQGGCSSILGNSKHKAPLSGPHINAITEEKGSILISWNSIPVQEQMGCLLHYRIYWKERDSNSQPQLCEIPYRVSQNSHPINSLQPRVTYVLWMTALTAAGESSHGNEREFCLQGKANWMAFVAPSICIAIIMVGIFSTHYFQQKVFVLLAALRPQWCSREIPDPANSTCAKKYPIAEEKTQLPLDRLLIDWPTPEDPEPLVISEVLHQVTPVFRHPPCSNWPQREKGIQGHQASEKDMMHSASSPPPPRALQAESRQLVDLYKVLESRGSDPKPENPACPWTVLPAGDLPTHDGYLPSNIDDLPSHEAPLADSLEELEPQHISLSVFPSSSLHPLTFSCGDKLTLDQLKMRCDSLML

recombinant human IL-12 (from UniProt P29459 23-219; P29460 23-328) (ligand)
p-STAT4 (Tyr693) AlphaLISA in activated human T cells, EC50: 0.195 ng/mL
